What was measured:
[1] = target: T1, human transferrin receptor 1 (hTfR1) on cell surfaces (human, UniProt P02786 1-760); assay: flow cytometry, Ramos cells
T1 construct: Endogenous receptor on hCMEC/D3, THP-1, K562 and Ramos cells; also called CD71; endogenous hTfR1
Experimental: (§1) Binding to hTfR1 on cells was measured on the immortalized human B lymphocyte cell line Ramos (Sigma, cat: 85030802). This cell line is known for expressing high levels of hTfR1 on the cell surface. Fcγ receptors were blocked using Fc receptor blocker (Innovex biosciences, #NB309-4X-40) for 30 min at 4° C., after which the cells were washed in PBS. The cells were seeded in a 96 well V bottom plate (#249570, Thermo Scientific Nunc), and serially diluted Gen 2A constructs were added and the plate was incubated at 4° C. overnight. The cells were washed with PBS with 1% BSA and then fixed with freshly prepared 4% formaldehyde (Thermo Scientific Pierce, #28906) diluted in PBS for 15 min at room temperature. The cells were washed with PBS containing 1% BSA, and then stained. […] Staining was carried out for 30 min at 4° C. After incubation with the detection reagent, cells were washed with PBS containing 1% BSA. The cells were finally resuspended in 200 μl PBS with 1% BSA and acquired using a BD FACSLyric flow cytometer system (BD Biosciences). Samples were analyzed using flowJo software (BD Biosciences).

[2] = target: T1, human transferrin receptor 1 (hTfR1) on …; assay: flow cytometry on Ramos cells (hTfR1 on the surface), Fc receptors blocked, overnight at 4 °C, detection with anti-human IgG-Alexa Fluor 488
Experimental: as §1

T1 sequence (P02786 whole entry): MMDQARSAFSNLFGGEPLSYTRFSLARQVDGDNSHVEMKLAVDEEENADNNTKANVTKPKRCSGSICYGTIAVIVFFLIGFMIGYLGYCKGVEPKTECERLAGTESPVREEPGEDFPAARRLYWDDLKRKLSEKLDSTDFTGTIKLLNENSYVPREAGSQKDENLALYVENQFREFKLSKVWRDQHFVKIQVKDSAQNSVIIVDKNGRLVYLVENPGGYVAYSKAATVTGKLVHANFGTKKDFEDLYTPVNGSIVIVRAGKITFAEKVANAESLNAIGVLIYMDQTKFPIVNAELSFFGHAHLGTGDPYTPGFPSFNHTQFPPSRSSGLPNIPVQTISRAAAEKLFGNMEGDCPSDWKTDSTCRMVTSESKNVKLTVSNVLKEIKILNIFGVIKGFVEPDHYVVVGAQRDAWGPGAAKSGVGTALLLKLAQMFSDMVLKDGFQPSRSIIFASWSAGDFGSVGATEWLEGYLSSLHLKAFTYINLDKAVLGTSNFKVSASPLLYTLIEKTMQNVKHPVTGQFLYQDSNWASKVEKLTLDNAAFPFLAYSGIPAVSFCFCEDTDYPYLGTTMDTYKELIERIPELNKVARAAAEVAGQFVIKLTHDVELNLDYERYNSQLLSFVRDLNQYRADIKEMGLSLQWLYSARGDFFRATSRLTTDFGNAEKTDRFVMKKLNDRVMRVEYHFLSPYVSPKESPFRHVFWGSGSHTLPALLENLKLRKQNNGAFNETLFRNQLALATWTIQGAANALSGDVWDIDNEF

Binder	binding result [1]	binding result [2]
2A-3 #13 (bispecific antibody, human IgG1, kappa, also called Gen 2A construct #13; VL first) heavy: not shown DIVMTQAPLSLPVSLGDQASISCRSSQSIVHSNGNTYLEWYLQKPGQSPKLLIYKVSNRFSGVPDRFSGSGSGTDFTLKISRVEAEDLGIYYCFQGSHVPPTFGGGTKLEIKRTVAAPSVFIFPPSDEQLKSGTASVVCLLNNFYPREAKVQWKVDNALQSGNSQESVTEQDSKDSTYSLSSTLTLSKADYEKHKVYACEVTHQGLSSPVTKSFNRGECGGGGSGGGGSGGGGSDIQMTQSPSSVSASVGDRVTITCKSSQSLLYSTNQKNYLAWYQQKPGKAPKLLIYWASTRESGVPSRFSGSGSGTDFTLTISSLQPEDFATYYCQQYFIYPRTFGQGTKVEIKGGGGSGGGGSGGGGSEVQLVQSGAEVKKPGSSVKVSCKASGYIFTDYNMDWVRQAPGQGLEWIGDINPDADTTSYNEKFKGRATLTVDKSTSTAYMELSSLRSEDTAVYYCARGGYSGSSYYHPMDYWGQGTLVTVSSGGGGSGGGGSGGGGSGGGGSGGGGSDIVMTQAPLSLPVSLGDQASISCRSSQSIVHSNGNTYLEWYLQKPGQSPKLLIYKVSNRFSGVPDRFSGSGSGTDFTLKISRVEAEDLGIYYCFQGSHVPPTFGGGTKLEIKRTVAAPSVFIFPPSDEQLKSGTASVVCLLNNFYPREAKVQWKVDNALQSGNSQESVTEQDSKDSTYSLSSTLTLSKADYEKHKVYACEVTHQGLSSPVTKSFNRGEC	–	binds
2A-3 #6 (bispecific antibody, human IgG1, kappa, also called Gen 2A construct #6; VH first) heavy: not shown DIVMTQAPLSLPVSLGDQASISCRSSQSIVHSNGNTYLEWYLQKPGQSPKLLIYKVSNRFSGVPDRFSGSGSGTDFTLKISRVEAEDLGIYYCFQGSHVPPTFGGGTKLEIKRTVAAPSVFIFPPSDEQLKSGTASVVCLLNNFYPREAKVQWKVDNALQSGNSQESVTEQDSKDSTYSLSSTLTLSKADYEKHKVYACEVTHQGLSSPVTKSFNRGECGGGGSGGGGSGGGGSEVQLVQSGAEVKKPGSSVKVSCKASGYIFTDYNMDWVRQAPGQGLEWIGDINPDADTTSYNEKFKGRATLTVDKSTSTAYMELSSLRSEDTAVYYCARGGYSGSSYYHPMDYWGQGTLVTVSSGGGGSGGGGSGGGGSDIQMTQSPSSVSASVGDRVTITCKSSQSLLYSTNQKNYLAWYQQKPGKAPKLLIYWASTRESGVPSRFSGSGSGTDFTLTISSLQPEDFATYYCQQYFIYPRTFGQGTKVEIKGGGGSGGGGSGGGGSGGGGSGGGGSDIVMTQAPLSLPVSLGDQASISCRSSQSIVHSNGNTYLEWYLQKPGQSPKLLIYKVSNRFSGVPDRFSGSGSGTDFTLKISRVEAEDLGIYYCFQGSHVPPTFGGGTKLEIKRTVAAPSVFIFPPSDEQLKSGTASVVCLLNNFYPREAKVQWKVDNALQSGNSQESVTEQDSKDSTYSLSSTLTLSKADYEKHKVYACEVTHQGLSSPVTKSFNRGEC	binds	–
2A-3 #12 (bispecific antibody, human IgG1, kappa, also called Gen 2A construct #12; VL first) heavy: not shown DIVMTQAPLSLPVSLGDQASISCRSSQSIVHSNGNTYLEWYLQKPGQSPKLLIYKVSNRFSGVPDRFSGSGSGTDFTLKISRVEAEDLGIYYCFQGSHVPPTFGGGTKLEIKRTVAAPSVFIFPPSDEQLKSGTASVVCLLNNFYPREAKVQWKVDNALQSGNSQESVTEQDSKDSTYSLSSTLTLSKADYEKHKVYACEVTHQGLSSPVTKSFNRGECGGGGSGGGGSDIQMTQSPSSVSASVGDRVTITCKSSQSLLYSTNQKNYLAWYQQKPGKAPKLLIYWASTRESGVPSRFSGSGSGTDFTLTISSLQPEDFATYYCQQYFIYPRTFGQGTKVEIKGGGGSGGGGSGGGGSEVQLVQSGAEVKKPGSSVKVSCKASGYIFTDYNMDWVRQAPGQGLEWIGDINPDADTTSYNEKFKGRATLTVDKSTSTAYMELSSLRSEDTAVYYCARGGYSGSSYYHPMDYWGQGTLVTVSSGGGGSGGGGSGGGGSGGGGSGGGGSDIVMTQAPLSLPVSLGDQASISCRSSQSIVHSNGNTYLEWYLQKPGQSPKLLIYKVSNRFSGVPDRFSGSGSGTDFTLKISRVEAEDLGIYYCFQGSHVPPTFGGGTKLEIKRTVAAPSVFIFPPSDEQLKSGTASVVCLLNNFYPREAKVQWKVDNALQSGNSQESVTEQDSKDSTYSLSSTLTLSKADYEKHKVYACEVTHQGLSSPVTKSFNRGEC	–	binds
2A-3 #3 (bispecific antibody, human IgG1, kappa, also called Gen 2A construct #3; VH first) heavy: not shown DIVMTQAPLSLPVSLGDQASISCRSSQSIVHSNGNTYLEWYLQKPGQSPKLLIYKVSNRFSGVPDRFSGSGSGTDFTLKISRVEAEDLGIYYCFQGSHVPPTFGGGTKLEIKRTVAAPSVFIFPPSDEQLKSGTASVVCLLNNFYPREAKVQWKVDNALQSGNSQESVTEQDSKDSTYSLSSTLTLSKADYEKHKVYACEVTHQGLSSPVTKSFNRGECGGGGSGGGGSGGGGSEVQLVQSGAEVKKPGSSVKVSCKASGYIFTDYNMDWVRQAPGQGLEWIGDINPDADTTSYNEKFKGRATLTVDKSTSTAYMELSSLRSEDTAVYYCARGGYSGSSYYHPMDYWGQGTLVTVSSGGGGSGGGGSGGGGSDIQMTQSPSSVSASVGDRVTITCKSSQSLLYSTNQKNYLAWYQQKPGKAPKLLIYWASTRESGVPSRFSGSGSGTDFTLTISSLQPEDFATYYCQQYFIYPRTFGQGTKVEIKGGGGSGGGGSGGGGSGGGGSDIVMTQAPLSLPVSLGDQASISCRSSQSIVHSNGNTYLEWYLQKPGQSPKLLIYKVSNRFSGVPDRFSGSGSGTDFTLKISRVEAEDLGIYYCFQGSHVPPTFGGGTKLEIKRTVAAPSVFIFPPSDEQLKSGTASVVCLLNNFYPREAKVQWKVDNALQSGNSQESVTEQDSKDSTYSLSSTLTLSKADYEKHKVYACEVTHQGLSSPVTKSFNRGEC	binds	–

The remaining lines, values ahead:

binding result [1]	binding result [2]	Binder
binds	–	2A-3 #5 (bispecific antibody, human IgG1, kappa, also called Gen 2A construct #5; VH first) heavy: not shown DIVMTQAPLSLPVSLGDQASISCRSSQSIVHSNGNTYLEWYLQKPGQSPKLLIYKVSNRFSGVPDRFSGSGSGTDFTLKISRVEAEDLGIYYCFQGSHVPPTFGGGTKLEIKRTVAAPSVFIFPPSDEQLKSGTASVVCLLNNFYPREAKVQWKVDNALQSGNSQESVTEQDSKDSTYSLSSTLTLSKADYEKHKVYACEVTHQGLSSPVTKSFNRGECGGGGSGGGGSEVQLVQSGAEVKKPGSSVKVSCKASGYIFTDYNMDWVRQAPGQGLEWIGDINPDADTTSYNEKFKGRATLTVDKSTSTAYMELSSLRSEDTAVYYCARGGYSGSSYYHPMDYWGQGTLVTVSSGGGGSGGGGSGGGGSDIQMTQSPSSVSASVGDRVTITCKSSQSLLYSTNQKNYLAWYQQKPGKAPKLLIYWASTRESGVPSRFSGSGSGTDFTLTISSLQPEDFATYYCQQYFIYPRTFGQGTKVEIKGGGGSGGGGSGGGGSGGGGSGGGGSDIVMTQAPLSLPVSLGDQASISCRSSQSIVHSNGNTYLEWYLQKPGQSPKLLIYKVSNRFSGVPDRFSGSGSGTDFTLKISRVEAEDLGIYYCFQGSHVPPTFGGGTKLEIKRTVAAPSVFIFPPSDEQLKSGTASVVCLLNNFYPREAKVQWKVDNALQSGNSQESVTEQDSKDSTYSLSSTLTLSKADYEKHKVYACEVTHQGLSSPVTKSFNRGEC
–	binds	2A-3 #14 (bispecific antibody, human IgG1, kappa, also called Gen 2A construct #14; VL first) heavy: not shown DIVMTQAPLSLPVSLGDQASISCRSSQSIVHSNGNTYLEWYLQKPGQSPKLLIYKVSNRFSGVPDRFSGSGSGTDFTLKISRVEAEDLGIYYCFQGSHVPPTFGGGTKLEIKRTVAAPSVFIFPPSDEQLKSGTASVVCLLNNFYPREAKVQWKVDNALQSGNSQESVTEQDSKDSTYSLSSTLTLSKADYEKHKVYACEVTHQGLSSPVTKSFNRGECGGGGSGGGGSGGGGSGGGGSGGGGSDIQMTQSPSSVSASVGDRVTITCKSSQSLLYSTNQKNYLAWYQQKPGKAPKLLIYWASTRESGVPSRFSGSGSGTDFTLTISSLQPEDFATYYCQQYFIYPRTFGQGTKVEIKGGGGSGGGGSGGGGSEVQLVQSGAEVKKPGSSVKVSCKASGYIFTDYNMDWVRQAPGQGLEWIGDINPDADTTSYNEKFKGRATLTVDKSTSTAYMELSSLRSEDTAVYYCARGGYSGSSYYHPMDYWGQGTLVTVSSGGGGSGGGGSGGGGSGGGGSGGGGSDIVMTQAPLSLPVSLGDQASISCRSSQSIVHSNGNTYLEWYLQKPGQSPKLLIYKVSNRFSGVPDRFSGSGSGTDFTLKISRVEAEDLGIYYCFQGSHVPPTFGGGTKLEIKRTVAAPSVFIFPPSDEQLKSGTASVVCLLNNFYPREAKVQWKVDNALQSGNSQESVTEQDSKDSTYSLSSTLTLSKADYEKHKVYACEVTHQGLSSPVTKSFNRGEC

— patent US20260274980A1 (BIOARCTIC, published 2026)
